Experimental data as given in paper PMC7145681 (Nucleic Acids Research, 2019).
Read-outs that look alike come from different tables or passages of the source.

Columns and labels:
[1] = target: T1, SP_0782 (Streptococcus pneumoniae, UniProt A0A0H2UPA7 7-79); assay: ITC
[2] = target: T1, SP_0782; assay: X-ray crystallography
[3] = target: the molecule itself; assay: SEC-MALS
[4] = target: T1, SP_0782; assay: ITC; remark: listed apart in the source

TTTTTT (ssDNA) [dT6]
Kd [1]: 26.8 µM

TCTTCC (ssDNA) [dTCTTCC]
binding result [2]: binds

B1: SP_0782 (7–79) W30A mutant (domain or fragment, Streptococcus pneumoniae, UniProt A0A0H2UPA7 7-79, looked up)
chain: KKMAEFTFEIEEHLLTLSENEKGATKEINRVSFNGAPAKFDIRAWSPDHTKMGKGITLSNEEFQTMVDAFKGN
stoichiometry N [3]: 2

B2: SP_0782 (7–79) wild-type from Streptococcus pneumoniae (domain or fragment, UniProt A0A0H2UPA7 7-79, looked up)
chain: KKMAEFTFEIEEHLLTLSENEKGWTKEINRVSFNGAPAKFDIRAWSPDHTKMGKGITLSNEEFQTMVDAFKGN
stoichiometry N [3]: 2

TTTTTTTTTTTT (ssDNA) [dT12]
Kd [4]: 0.0206 µM
